This passage reports activity (% cleaved DNA (T7E1)) results from patent US20230167431.

This series concerns CCR5-targeting megaTAL (CCR5MT) expressed as a CCR5MT-tEGFR fusion (Artificial sequence). The experiment in a line: cell_activity. To be noted: tEGFR-sorted primary human CD4 T cells, donor 1; estimated InDels 58.76%; donor 2 73.54% cleaved; untreated 0%; SEQ:6 assigned to the megaTAL by inference from ….

As for CCR5 gene megaTAL target site, the activity (% cleaved DNA (T7E1)) was 83.
